In US20210002656 one finds activity data, which are given here for 1 substance.

For the series, the target named is T1, I-SceI (UniProt P03882).
T1 sequence: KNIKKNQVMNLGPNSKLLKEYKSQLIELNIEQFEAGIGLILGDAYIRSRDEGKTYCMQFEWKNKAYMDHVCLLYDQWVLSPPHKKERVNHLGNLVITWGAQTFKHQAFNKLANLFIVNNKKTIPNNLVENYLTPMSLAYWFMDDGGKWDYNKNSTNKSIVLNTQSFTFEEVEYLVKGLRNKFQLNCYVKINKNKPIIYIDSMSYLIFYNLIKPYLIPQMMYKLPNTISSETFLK
Nature of the series: cell_activity. Conditions: protein delivered to N. tabacum protoplasts, SSA assay; 0.49% when delivered as DNA; 2.4% sequential delivery.

I-SceI site in YFP SSA plasmid yielded an activity of 4.4 % YFP.
